Measured values reported in publication PMC12081870 (Communications Biology, 2025).

Experiment: 15N NMR relaxation (T1, T2, NOE) of Sla1 SH3#1&2
Assay type: physicochemical, Saccharomyces cerevisiae
Set-up: Time Constant (T2) / T1 / T2: unit not given here
Conditions: for R1/s: 15N relaxation rate; for NOE / T1 / T2: 15N relaxation; for Time Constant (T2): fit A exp(-Bx), 11 peaks
Source text: Fig. 2 A structural analysis of Sla1 SH3 domains 1 and 2. A The predicted interface between the first two SH3 domains of Sla1 as modelled using Alphafold. SH3#1 is shown in light green and SH3#2 is shown in cyan. Residues predicted to form hydrogen bonds using the Pymol search function are shown as sticks and labelled with their respective residue numbers. Dashed black lines indicate interactions. The red line in the structure indicates residues 67–70 in the hinge between the SH3 domains; the magenta loop indicates residues 52–54. B Assignment of the ^1H ^15N HSQC spectrum of Sla1 SH3 domains 1 and 2. C^15N relaxation data for Sla1 SH3#1&2. The linker between domains is approximately residues 67–70 (shown with red line under the trace and in A), and the mobile region 52-54 is part of a loop (shown with magenta line below the trace and in A). The correlation time of 8.5 ns (derived from the trimmed ^15N T1/T2 ratio), matches that calculated for a rigid two-domain structure rather than two independent domains (8.8 and 4.5 ns, respectively).
To investigate further, we purified ^15N, ^13C labelled Sla1 SH3#1&2 and analysed using NMR. A full assignment was obtained (Fig. 2B) which confirmed the Alphafold structure. An important aspect when considering the function of tandem domains is the level of rigidity or flexibility between the domains. […] NMR was used to determine relaxation parameters (^15N R1, R2 and NOE) of ^15N-labelled SH3#1-2 (Fig. 2B). […] The structural unity of the two-domain structure explains why attempts to study SH3#2 alone were unsuccessful.
Experiments were carried out on Bruker DRX-600 and DRX-800 spectrometers fitted with cryoprobes. SH3 domains 1 and 2 were assigned using a standard set of HNCA/HN(CO)CA, HNCO/HN(CA)CO and CBCAHN/CBCA(CO)HN 3D spectra. The assignment has been deposited at BioMagResBank, with code 52650. SH3 domain-3 was assigned by comparison to data provided by Prof Ishwar Radhakrishnan (Northwestern University) for the same domain although with different residues at both ends. Titrations were conducted with three peptides (GenScript Biotech, UK) comprising the three PP motifs (Fig. 3A): p1 […] (residues 318–339); p2 […] (residues 330–361); and p3 […] (residues 375–397). Peptide solutions were prepared as concentrated stock solutions in the same buffer at the same pH and added stepwise to protein solutions. Shift changes were analysed by picking peaks in Felix (Felix NMR Inc, San Diego, CA), which were downloaded to text files and for determining Kd were analysed using Levenberg-Marquardt least squares fitting to the standard quadratic equation[63]. Analysis of the ^15N relaxation data was carried using CCPN Analysis[64].

[1] = Average over the listed residues

B1: Sla1 SH3#1-2: SH3#1-2 (aa 5-131), tandem domains; sequence in b253 (protein)
chain: LGIYRAVYAYEPQTPEELAIQEDDLLYLLQKSDIDDWWTVKKRVIGSDSEEPVGLVPSTYIEEAPVLKKVRAIYDYEQVQNADEELTFHENDVFDVFDDKDADWLLVKSTVSNEFGFIPGNYVEPEN
modifications: 15N-labelled (NMR only); left off: GST, end not stated, cleaved
Res No 120
  R1/s: 1.466 s⁻¹
  NOE: 0.82
  T1: 682.123
  T2: 81.3349
Res No 121
  R1/s: 1.493 s⁻¹
  NOE: 0.78
  T1: 669.609
  T2: 97.0012
Res No 122
  R1/s: 1.379 s⁻¹
  NOE: 0.83
  T1: 725.391
  T2: 86.8543
Res No 124
  R1/s: 1.37 s⁻¹
  NOE: 0.77
  T1: 730.172
  T2: 96.3447
Res No 125
  R1/s: 1.488 s⁻¹
  NOE: 0.80
  T1: 671.872
  T2: 93.7171
Res No 126
  R1/s: 1.238 s⁻¹
  NOE: 0.79
  T1: 807.954
  T2: 78.1493
Res No 127
  R1/s: 1.493 s⁻¹
  NOE: 0.85
  T1: 669.869
  T2: 96.0414
Res No 128
  R1/s: 1.443 s⁻¹
  NOE: 0.81
  T1: 693.218
  T2: 98.2071
Res No 130
  R1/s: 1.206 s⁻¹
  NOE: 0.63
  T1: 829.235
  T2: 96.7653
Res No 131
  R1/s: 1.364 s⁻¹
  NOE: 0.25
  T1: 733.153
  T2: 129.47
[1]
  T1, average: 736.968 ms
  T1/T2, average: 7.904
Average over the listed residues, unit of column T2 Error not given
  T2, average: 95.1164 ms
If S2 ~ 0.9, from T1/T2
  tm: ~8.5 ns
Derived from trimmed 15N T1/T2 ratio
  correlation time: 8.5 ns
Residue 2, 2LeuH/2LeuN
  Time Constant (T2): 74.2339
Residue 3, 3GlyH/3GlyN
  Time Constant (T2): 77.6134
Residue 4, 4SerH/4SerN
  Time Constant (T2): 87.959
Residue 5, 5LeuH/5LeuN
  Time Constant (T2): 78.1323
Residue 6, 6GlyH/6GlyN
  Time Constant (T2): 92.4802
Residue 7, 7IleH/7IleN
  Time Constant (T2): 92.3591
Residue 8, 8TyrH/8TyrN
  Time Constant (T2): 80.6702
Residue 9, 9ArgH/9ArgN
  Time Constant (T2): 95.265
Residue 10, 10AlaH/10AlaN
  Time Constant (T2): 80.3318
Residue 11, 11ValH/11ValN
  Time Constant (T2): 83.3796
Residue 12, 12TyrH/12TyrN
  Time Constant (T2): 98.6102
Residue 13, 13AlaH/13AlaN
  Time Constant (T2): 103.591
Residue 14, 14TyrH/14TyrN
  Time Constant (T2): 86.8853
Residue 15, 15GluH/15GluN
  Time Constant (T2): 80.7454
Residue 17, 17GlnH/17GlnN
  Time Constant (T2): 97.1227
Residue 18, 18ThrH/18ThrN
  Time Constant (T2): 94.4167
Residue 20, 20GluH/20GluN
  Time Constant (T2): 89.6372
Residue 21, 21GluH/21GluN
  Time Constant (T2): 88.1386
Residue 22, 22LeuH/22LeuN
  Time Constant (T2): 101.792
Residue 23, 23AlaH/23AlaN
  Time Constant (T2): 109.32
Residue 24, 24IleH/24IleN
  Time Constant (T2): 84.8173
Residue 25, 25GlnH/25GlnN
  Time Constant (T2): 91.5466
Residue 26, 26GluH/26GluN
  Time Constant (T2): 91.8855
Residue 27, 27AspH/27AspN
  Time Constant (T2): 90.7749
Residue 28, 28AspH/28AspN
  Time Constant (T2): 79.1318
Residue 29, 29LeuH/29LeuN
  Time Constant (T2): 102.528
Residue 30, 30LeuH/30LeuN
  Time Constant (T2): 94.1276
Residue 31, 31TyrH/31TyrN
  Time Constant (T2): 100.15
Residue 32, 32LeuH/32LeuN
  Time Constant (T2): 86.762
Residue 33, 33LeuH/33LeuN
  Time Constant (T2): 75.7339
Residue 34, 34GlnH/34GlnN
  Time Constant (T2): 87.3929
Residue 35, 35LysH/35LysN
  Time Constant (T2): 101.82
Residue 36, 36SerH/36SerN
  Time Constant (T2): 153.776
Residue 37, 37AspH/37AspN
  Time Constant (T2): 90.5854
Residue 38, 38IleH/38IleN
  Time Constant (T2): 99.0603
Residue 39, 39AspH/39AspN
  Time Constant (T2): 104.622
Residue 40, 40AspH/40AspN
  Time Constant (T2): 92.3559
Residue 41, 41TrpH/41TrpN
  Time Constant (T2): 105.38
Residue 42, 42TrpH/42TrpN
  Time Constant (T2): 87.941
Residue 43, 43ThrH/43ThrN
  Time Constant (T2): 96.7782
Residue 44, 44ValH/44ValN
  Time Constant (T2): 79.239
Residue 45, 45LysH/45LysN
  Time Constant (T2): 89.2928
Residue 46, 46LysH/46LysN
  Time Constant (T2): 79.9381
Residue 47, 47ArgH/47ArgN
  Time Constant (T2): 96.0563
Residue 48, 48ValH/48ValN
  Time Constant (T2): 80.6125
Residue 49, 49IleH/49IleN
  Time Constant (T2): 93.7827
Residue 50, 50GlyH/50GlyN
  Time Constant (T2): 115.88
Residue 51, 51SerH/51SerN
  Time Constant (T2): 86.3946
Residue 52, 52AspH/52AspN
  Time Constant (T2): 168.141
Residue 53, 53SerH/53SerN
  Time Constant (T2): 144.016
Residue 54, 54GluH/54GluN
  Time Constant (T2): 154.977
Residue 55, 55GluH/55GluN
  Time Constant (T2): 101.598
Residue 57, 57ValH/57ValN
  Time Constant (T2): 100.05
Residue 58, 58GlyH/58GlyN
  Time Constant (T2): 89.0014
Residue 59, 59LeuH/59LeuN
  Time Constant (T2): 85.278
Residue 60, 60ValH/60ValN
  Time Constant (T2): 98.7206
Residue 62, 62SerH/62SerN
  Time Constant (T2): 97.5945
Residue 63, 63ThrH/63ThrN
  Time Constant (T2): 81.7496
Residue 64, 64TyrH/64TyrN
  Time Constant (T2): 104.147
Residue 65, 65IleH/65IleN
  Time Constant (T2): 90.7515
Residue 66, 66GluH/66GluN
  Time Constant (T2): 88.572
Residue 67, 67GluH/67GluN
  Time Constant (T2): 102.479
Residue 68, 68AlaH/68AlaN
  Time Constant (T2): 84.1741
Residue 70, 70ValH/70ValN
  Time Constant (T2): 100.257
Residue 71, 71LeuH/71LeuN
  Time Constant (T2): 80.9555
Residue 72, 72LysH/72LysN
  Time Constant (T2): 97.8301
Residue 73, 73LysH/73LysN
  Time Constant (T2): 97.0107
Residue 74, 74ValH/74ValN
  Time Constant (T2): 95.1713
Residue 75, 75ArgH/75ArgN
  Time Constant (T2): 95.2306
Residue 76, 76AlaH/76AlaN
  Time Constant (T2): 79.2788
Residue 77, 77IleH/77IleN
  Time Constant (T2): 85.3516
Residue 78, 78TyrH/78TyrN
  Time Constant (T2): 77.7575
Residue 79, 79AspH/79AspN
  Time Constant (T2): 86.8514
Residue 80, 80TyrH/80TyrN
  Time Constant (T2): 102.25
Residue 81, 81GluH/81GluN
  Time Constant (T2): 91.1679
Residue 82, 82GlnH/82GlnN
  Time Constant (T2): 103.776
Residue 83, 83ValH/83ValN
  Time Constant (T2): 96.58
Residue 84, 84GlnH/84GlnN
  Time Constant (T2): 115.172
Residue 85, 85AsnH/85AsnN
  Time Constant (T2): 109.146
Residue 86, 86AlaH/86AlaN
  Time Constant (T2): 101.454
Residue 87, 87AspH/87AspN
  Time Constant (T2): 93.3182
Residue 88, 88GluH/88GluN
  Time Constant (T2): 94.5093
Residue 89, 89GluH/89GluN
  Time Constant (T2): 99.1662
Residue 90, 90LeuH/90LeuN
  Time Constant (T2): 96.3149
Residue 91, 91ThrH/91ThrN
  Time Constant (T2): 78.2582
Residue 92, 92PheH/92PheN
  Time Constant (T2): 85.0538
Residue 93, 93HisH/93HisN
  Time Constant (T2): 82.1244
Residue 94, 94GluH/94GluN
  Time Constant (T2): 97.249
Residue 95, 95AsnH/95AsnN
  Time Constant (T2): 98.0824
Residue 96, 96AspH/96AspN
  Time Constant (T2): 93.6871
Residue 97, 97ValH/97ValN
  Time Constant (T2): 100.422
Residue 98, 98PheH/98PheN
  Time Constant (T2): 79.4419
Residue 99, 99AspH/99AspN
  Time Constant (T2): 97.6801
Residue 100, 100ValH/100ValN
  Time Constant (T2): 97.751
Residue 101, 101PheH/101PheN
  Time Constant (T2): 95.7132
Residue 102, 102AspH/102AspN
  Time Constant (T2): 87.4197
Residue 103, 103AspH/103AspN
  Time Constant (T2): 77.1058
Residue 104, 104LysH/104LysN
  Time Constant (T2): 88.8779
Residue 105, 105AspH/105AspN
  Time Constant (T2): 102.407
Residue 106, 106AlaH/106AlaN
  Time Constant (T2): 137.978
Residue 107, 107AspH/107AspN
  Time Constant (T2): 99.1634
Residue 108, 108TrpH/108TrpN
  Time Constant (T2): 105.531
Residue 109, 109LeuH/109LeuN
  Time Constant (T2): 92.4282
Residue 110, 110LeuH/110LeuN
  Time Constant (T2): 99.3469
Residue 111, 111ValH/111ValN
  Time Constant (T2): 90.5694
Residue 112, 112LysH/112LysN
  Time Constant (T2): 92.6618
Residue 113, 113SerH/113SerN
  Time Constant (T2): 88.7102
Residue 114, 114ThrH/114ThrN
  Time Constant (T2): 88.1188
Residue 115, 115ValH/115ValN
  Time Constant (T2): 99.4179
Residue 116, 116SerH/116SerN
  Time Constant (T2): 105.651
Residue 117, 117AsnH/117AsnN
  Time Constant (T2): 79.9936
Residue 118, 118GluH/118GluN
  Time Constant (T2): 87.975
Residue 119, 119PheH/119PheN
  Time Constant (T2): 95.7684
Residue 120, 120GlyH/120GlyN
  Time Constant (T2): 81.3349
Residue 121, 121PheH/121PheN
  Time Constant (T2): 97.0012
Residue 122, 122IleH/122IleN
  Time Constant (T2): 86.8543
